Source: patent US20050233963A1

Biological target: hsc70 (constitutively expressed form of hsp70) (UniProt P11142)
Test: cell-based or functional assay

Sequence of hsc70 (constitutively expressed form of hsp70) (P11142 whole entry): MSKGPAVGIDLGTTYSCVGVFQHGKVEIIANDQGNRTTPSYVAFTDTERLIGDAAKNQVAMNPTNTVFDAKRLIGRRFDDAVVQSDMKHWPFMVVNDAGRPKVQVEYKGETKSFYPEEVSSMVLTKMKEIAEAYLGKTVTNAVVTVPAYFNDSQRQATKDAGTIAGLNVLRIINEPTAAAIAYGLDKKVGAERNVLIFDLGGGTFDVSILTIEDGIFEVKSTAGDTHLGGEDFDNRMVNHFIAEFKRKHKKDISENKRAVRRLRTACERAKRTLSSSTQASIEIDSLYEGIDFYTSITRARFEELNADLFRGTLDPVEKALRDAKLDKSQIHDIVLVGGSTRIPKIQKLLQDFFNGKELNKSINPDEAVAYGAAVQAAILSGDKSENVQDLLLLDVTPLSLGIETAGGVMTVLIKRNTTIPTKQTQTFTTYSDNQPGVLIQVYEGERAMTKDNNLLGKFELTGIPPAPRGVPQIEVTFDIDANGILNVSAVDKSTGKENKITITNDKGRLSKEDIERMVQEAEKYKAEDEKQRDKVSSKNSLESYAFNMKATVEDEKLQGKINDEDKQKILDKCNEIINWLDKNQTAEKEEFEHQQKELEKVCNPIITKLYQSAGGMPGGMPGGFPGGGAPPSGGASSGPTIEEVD

decrease in hs70-dependent refolding of luciferase: 30%
Substance: His-UBP (histidine tagged-UBP) (from UniProt O43765 1-313)
